Measurements taken from publication PMC8885657, “HPV infection alters vaginal microbiome through down-regulating host mucosal innate peptides used by Lactobacilli as amino acid sources” (Nature Communications, 2022).

B1: HD-5: epithelial member of the defensin family, host defense peptide (PeptaNova) (peptide, UniProt Q01523 20-94, looked up)
Defensin alpha 5: ESLQERADEATTQKQSGEDNQDLAISFAGNGLSALRTSGSQARATCYCRTGRCATRESLSGVCEISGRLYRLCCR

Key:
[1] = test system: murine vaginal microbiota; experiment: 16S-based metagenomics of cervico-vaginal lavage samples; format: in vivo, mouse; conditions: FVB/n mice treated (n=12) or not (n=8), subcutaneous implant 1-2 µg/24h, 12 weeks
Description: FVB/n mice expressing HPV16 under the control of the keratin 14 promoter (K14-HPV16 transgenic mice) were obtained from the National Cancer Institute Mouse Repository. Given that (pre)cancer development within the lower genital tract has been previously shown to be hormone-dependent in this model[75],[76], 6 to 8-week-old female mice (n = 12 per condition) were subcutaneously implanted with a Belma’s E2 implant (E2-M/90, Belma Technologies, Liege, Belgium), allowing reproducible long-term release of 17β-estradiol (1–2 µg/24 h) for 90 days[77]. A similar procedure was performed with control (FVB/n) mice. […]
Mice were randomly distributed in cages and housed under standard conditions [12 h light/12 h dark cycle, ad libitum access to food and water, constant temperature (19–21 °C) and humidity (40–50%)] in the GIGA-Mouse facility platform (University of Liege) during the entire course of the study. […] Seven µl from each samples were spread on a glass slide, fixed/stained using Diff-Quick reagents (Medion Diagnostics, Düdingen, Switzerland) and the estrous cycle stage was determined using established criteria.
DNA was isolated from cervico-vaginal lavage samples using NucleoSpin Tissue kit (Macherey Nagel, Düren, Germany). […] Of note, 7 random nucleotides were added to the 5′ region of forward primer to increase complexity and, therefore, improve sequence read quality. […]

[2] = test system: Lactobacillus crispatus DSM 20356; experiment: Antimicrobial assay (surviving colonies, CFU count); format: cell-based; conditions: peptide 1–10 µg/ml, 5 × 10^4 CFU/ml, 10 mM sodium phosphate buffer, 6 h, 37 °C; plated on Columbia Blood agar; n = 3
Description: (§1) Bacterial strains Lactobacillus crispatus DSM 20356, Lactobacillus iners CIP 105923 and Garnerella vaginalis CCUG 43336 were kindly provided by the Department of Clinical Microbiology at University Hospital Center of Liege. Lactobacillus jensenii LMG 6414 was obtained from BCCM/LMG Bacteria Collection (University of Gent, Belgium). Log-phase bacteria were grown on Columbia agar with 5% sheep blood (Becton Dickinson, Franklin Lakes, NJ, USA) at 37 °C in a humidified CO2 atmosphere (Lactobacilli) or in anaerobic jars (G. vaginalis). To analyze the antimicrobial effect of innate peptides expressed by vaginal/cervical mucosa, 5 × 10^4 colony-forming unit (CFU)/ml were mixed with different peptides (concentration range: 1–10 µg/ml) in 10 mM sodium phosphate buffer (SPB) (final volume 100 µl) and incubated for 45 min to 9 h at 37 °C. Where indicated, the peptides were incubated with 2 mM dithiothreitol (DTT) (Invitrogen, Carlsbad, CA, USA) for 30 min at 37 °C before adding the bacteria. In indicated experiments, incubation was carried out in potassium phosphate buffer (KPB) (pH: 7.4, 10 mM). The following peptides were tested: HβD1 (PeptaNova, Sandhausen, Germany), HβD2 (PeptaNova), HβD3 (PeptaNova), HβD4 (PeptaNova), HD-5 (PeptaNova), HD-6 (PeptaNova), elafin (PeptaNova), S100A7 (Abnova, Taipei City, Taiwan) and SLPI (R&D Systems, Minneapolis, MI, USA). Bacterial suspensions were then plated on Columbia Blood agar plates for 24–48 h to determine CFU. High-resolution images for each condition were taken. Colony detection and counts were finally performed using ImageJ software (NIH, Bethesda, MD, USA) and verified by manual counting.

[3] = test system: Lactobacillus iners CIP 105923; experiment: as above; format: cell-based; conditions: peptide 1–10 µg/ml, 5 × 10^4 CFU/ml, 10 mM sodium phosphate buffer, 6 h, 37 °C; plated on Columbia Blood agar; n = 3
Description: as §1

[4] = test system: Lactobacillus jensenii LMG 6414; experiment: as above; format: cell-based; conditions: peptide 1–10 µg/ml, 5 × 10^4 CFU/ml, 10 mM sodium phosphate buffer, 6 h, 37 °C; plated on Columbia Blood agar; n = 3
Description: as §1

Gardnerella vaginalis = experiment: as above; format: cell-based; conditions: peptide 1–10 µg/ml, 5 × 10^4 CFU/ml, 10 mM sodium phosphate buffer, 6 h, 37 °C; plated on Columbia Blood agar; n = 5
Description: as §1

Row | Molecule | composition of murine vaginal microbiota (α- and β-diversity, richness, evenness) [1] | effect on bacterial growth/survival (percentage of surviving colonies) [2] | effect on bacterial growth/survival (percentage of surviving colonies) [3] | effect on bacterial growth/survival (percentage of surviving colonies) [4] | effect on bacterial growth/survival (percentage of surviving colonies) (Gardnerella vaginalis)
1 | C[C@]12CC[C@@H]3c4ccc(O)cc4CC[C@H]3[C@@H]1CC[C@@H]2O [17β-estradiol] | not altered | – | – | – | –
2 | B1 | – | inhibit the growth | inhibit the growth | inhibit the growth | inhibit the growth
